From patent US20140148396A1

Molecular target: EMMPRIN in mouse aortic endothelial cells (MAEC) (mouse) (UniProt P18572)
Test: cell-based or functional assay

anti-EMMPRIN antibody (rat-anti-mouse-EMMPRIN, OX114 clone)
reduction of MMP-9 in mice compared to the IgG control: > 50%
